Consider 5 molecules from patent US20250027060A1 (VIB VZW, published 2025).

Where a chain is given by its changes, count along the chain named. Numbers in names are those of the source.

The target in assay [1] is T1, LTKTG-EGFL (human LTK amino acids 63-420) (human, UniProt P29376 63-420).
T1 construct: Fc-His6 tag removed by caspase 3; also called LTK (in BLI, SEC-MALLS and ITC)
T1 sequence: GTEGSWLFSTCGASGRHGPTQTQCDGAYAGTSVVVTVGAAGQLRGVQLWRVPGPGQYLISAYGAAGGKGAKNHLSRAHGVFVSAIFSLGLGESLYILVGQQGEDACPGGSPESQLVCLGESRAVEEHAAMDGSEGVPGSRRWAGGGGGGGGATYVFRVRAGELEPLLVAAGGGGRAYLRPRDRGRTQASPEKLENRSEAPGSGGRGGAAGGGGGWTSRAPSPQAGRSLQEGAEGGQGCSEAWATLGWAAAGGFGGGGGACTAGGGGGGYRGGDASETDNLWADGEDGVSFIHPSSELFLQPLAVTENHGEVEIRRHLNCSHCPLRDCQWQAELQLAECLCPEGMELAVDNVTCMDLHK
Briefly: BLI, biotinylated ALKAL1 F76E on streptavidin biosensors, LTKTG-EGFL in solution, dilution series 6.4 µM-400 nM, biphasic fit, component 1. An excerpt: (§1) FIGS. 10A and 10B Representative response curves as measure by biolayer-interferometry (BLI) for the interaction of WT ALKAL1 and ALKAL1 mutants (containing charge-reversal mutations of residues involved in site 1) (FIG. 10A) and WT ALKAL2 and ALKAL2 mutants (FIG. 10B) with ALK_TG-EGFL and LTK_TG-EGFL. For WT ALKALs LTK curves were fitted with a 2:1 binding model (red) while for ALK a 1:1 model was used. Start and end concentrations of the 3-fold dilution series used for the WT measurements is shown as an inset while for all mutants a […] dilution series from 6.4 μM-400 nM was used.
(§2) All measurements of binding kinetics and dissociation constants were performed using an Octet Red 96 (Forté Bio) in assay buffer (20 mM HEPES pH 7.4, 150 mM NaCl, 0.02% (w/v) BSA, 0.002% (v/v) Tween 20) at 298K. ALKALs were immobilized to a level of 0.5 nm on streptavidin-coated biosensors (Forté Bio). To verify that no a specific binding was present during the assay, non-functionalized biosensors were used as a control by measuring in parallel all ligand concentrations as well as running buffer. For all mutants a two-fold dilution series from 6.4 μM-400 nM was employed. Data analysis was performed using the Data Analysis software 9.0.0.14 (Forté Bio) and binding curves were exported to Prism8 (Graphpad Software) for plotting of curves.

Assay [2] deals with T1, LTKTG-EGFL (human LTK amino acids …). Briefly: BLI, biotinylated ALKAL1 F76E on streptavidin biosensors, LTKTG-EGFL in solution, dilution series 6.4 µM-400 nM, biphasic fit, component 2.
Description: as §1, §2
In general terms: Biolayer interferometry detects binding as a change in optical thickness at a sensor tip.

Assay [3] shares this target. In words: BLI, biotinylated ALKAL1 R115E on streptavidin biosensors, LTKTG-EGFL in solution, dilution series 6.4 µM-400 nM.
Description: as §1, §2

The target of assay [4] is T2, LTKTG (human LTK amino acids 63-379) (human, UniProt P29376 63-379).
T2 construct: also called LTK TG supradomain
T2 sequence: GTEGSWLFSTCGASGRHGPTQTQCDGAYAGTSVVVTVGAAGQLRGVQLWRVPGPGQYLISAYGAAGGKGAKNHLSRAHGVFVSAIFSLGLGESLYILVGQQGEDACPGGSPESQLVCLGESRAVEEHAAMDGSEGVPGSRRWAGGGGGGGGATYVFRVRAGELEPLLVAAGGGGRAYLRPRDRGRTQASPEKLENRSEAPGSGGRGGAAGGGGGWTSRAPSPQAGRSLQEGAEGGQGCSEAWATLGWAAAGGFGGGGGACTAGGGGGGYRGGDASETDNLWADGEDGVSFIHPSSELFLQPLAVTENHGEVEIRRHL
In words: ITC at 310 K, LTKTG (10 µM) titrated with ALKAL1FL (40 µM), one-site model. As to the method:
FIG. 12H, ITC experiments for the titration of LTKTG (10 μM) with ALKAL1FL (40 μM) Standard deviations were calculated based on 2 measurements.
(§3) Experiments were performed using a MicroCal PEAQ-ITC instrument at 310K. Proteins used in ITC experiments were expressed in HEK293S cells grown in suspension. As a final purification step all proteins were buffer exchanged to the same HBS buffer via size-exclusion chromatography. Titrations were preceded by an initial injection of 0.5 μL. The injection spacing was optimized per experiment to allow for the signal to get back to a stable baseline. Throughout the titration the sample was stirred at a speed of 750 r.p.m. Data were analyzed using the PEAQ-ITC analysis software (version 1.1.0.1262, Malvern) and fit using a “one set of sites” model.

Assay [5] deals with T1, LTKTG-EGFL (human LTK amino acids …). In words: ITC at 310 K, LTKTG-EGFL (7.2 µM) titrated with ALKAL1FL (55 µM), one-site model. As for the experimental part:
The right panel represents the binding isotherm obtained from the integration of the raw data and fitted to a one-site model. Standard deviations were calculated based on 3 measurements.
as §3

The target is the same in assay [6]. In words: BLI, biotinylated ALKAL2 F97E on streptavidin biosensors, LTKTG-EGFL in solution, dilution series 6.4 µM-400 nM; only component 1 is printed.
Description: as §1, §2

For assay [7], the target named is T3, ALKTG-EGFL (human ALK amino acids 648-1025) (human, UniProt Q9UM73 648-1025, N-linked glycans; EndoH-trimmed (deglycosylated) for crystals and SEC-MALLS).
T3 construct: The C-terminal Fc-His6 tag was removed by caspase 3; also called ALK (in BLI, SEC-MALLS and ITC)
T3 sequence (Q9UM73 648-1025): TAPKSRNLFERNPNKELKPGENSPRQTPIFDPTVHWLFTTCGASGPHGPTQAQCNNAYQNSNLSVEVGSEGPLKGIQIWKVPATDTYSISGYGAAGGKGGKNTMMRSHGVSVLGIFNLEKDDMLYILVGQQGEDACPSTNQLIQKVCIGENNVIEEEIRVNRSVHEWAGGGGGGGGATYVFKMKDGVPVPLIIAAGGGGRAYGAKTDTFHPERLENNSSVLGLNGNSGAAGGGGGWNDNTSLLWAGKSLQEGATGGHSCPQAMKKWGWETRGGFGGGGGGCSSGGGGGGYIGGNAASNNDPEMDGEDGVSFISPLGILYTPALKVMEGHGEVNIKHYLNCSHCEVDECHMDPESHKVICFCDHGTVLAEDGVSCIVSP
In words: BLI, biotinylated ALKAL2 F97E on streptavidin biosensors, ALKTG-EGFL in solution.
Description: as §1, §2

Assay [8] addresses T3, ALKTG-EGFL (human ALK amino acids …). Briefly: BLI, biotinylated ALKAL2 R136E on streptavidin biosensors, ALKTG-EGFL in solution, dilution series 6.4 µM-400 nM.
Description: as §1, §2

Assay [9] has as its target T1, LTKTG-EGFL (human LTK amino acids …). In words: BLI, biotinylated ALKAL2 R136E on streptavidin biosensors, LTKTG-EGFL in solution, dilution series 6.4 µM-400 nM.
Description: as §1, §2

B1: ALKAL1^F76E (residues 57-129) (ligand, human, UniProt Q6UXT8 57-129, looked up)
chain: PSGSRSAEIFPRDSNLKDKEIKHFTGPVTFSPECSKHFHRLYYNTRECSTPAYYKRCARLLTRLAVSPLCSQT
notes: range 57-129; Avi-tagged and biotinylated in BLI; used as purified protein in SEC-MALLS and Ba/F3 assays; also called ALKAL1 site 2 mutant
A word on the Kd: it is the concentration at which binding is half-saturated. A lower Kd goes with a tighter complex. As usually defined, the koff is the rate constant with which the complex falls apart. As a reminder, the kon is the rate constant with which the complex forms. Turning to B1, in assay [1], binding was put at a Kd of 350 nM, the off-rate (koff) stood at 0.0005 s⁻¹ and the kon is 4000 M⁻¹ s⁻¹. In assay [2], this molecule gave a Kd of 1500 nM, an off-rate constant (koff) of 0.11 s⁻¹ and a kon of 60000 M⁻¹ s⁻¹.

B2: ALKAL1^R115E (residues 57-129) (ligand, human, UniProt Q6UXT8 57-129, looked up)
chain: B1 chain with E20F, R59E
notes: range 57-129; also called ALKAL1 site 1 mutant R115E
Regarding B2, in assay [3], the Kd was 3100 nM, the off-rate (koff) was 0.041 s⁻¹ and the kon was determined as 13000 M⁻¹ s⁻¹.

B3: ALKAL1FL (full-length ALKAL1, residues 28-129) (ligand, human, UniProt Q6UXT8 28-129, looked up)
chain: RPRGRRGARVTDKEPKPLLFLPAAGAGRTPSGSRSAEIFPRDSNLKDKFIKHFTGPVTFSPECSKHFHRLYYNTRECSTPAYYKRCARLLTRLAVSPLCSQT
notes: range 28-129; Sumostar tag removed by caspase 3
In assay [4], B3 displayed a Kd of 24 nM, a ΔG of -10.8 kcal/mol and a ΔH of -29.6 kcal/mol. Further, in assay [5], binding was put at a Kd of 11 nM, the ΔG was -11.3 kcal/mol and the ΔH was -31.7 kcal/mol.

B4: ALKAL2^F97E (residues 78-152) (ligand, human, UniProt Q6UX46 78-152, looked up)
chain: PSPEQRVEIVPRDLRMKDKELKHLTGPLYFSPKCSKHFHRLYHNTRDCTIPAYYKRCARLLTRLAVSPVCMEDKQ
notes: range 78-152; Avi-tagged and biotinylated in BLI; used as purified protein in SEC-MALLS and Ba/F3 assays; also called ALKAL2 site 2 mutant F97E
On to B4, for which, in assay [6], the Kd came to 8400 nM, the dissociation rate constant (koff) was determined as 0.16 s⁻¹ and the kon was 53000 M⁻¹ s⁻¹. Moreover, in assay [7], the Kd amounted to 200 nM, the koff worked out at 0.071 s⁻¹ and the kon is 450000 M⁻¹ s⁻¹.

B5: ALKAL2^R136E (residues 78-152) (ligand, human, UniProt Q6UX46 78-152, looked up)
chain: B4 chain with E20F, R59E
notes: range 78-152; also called ALKAL2 site 1 mutant R136E
As to B5, in assay [8], the Kd is 1500 nM and the koff was determined as 0.8 s⁻¹. Also, in assay [9], binding was characterised by a dissociation constant (Kd) of 5900 nM, the koff stood at 0.12 s⁻¹ and the kon was 20000 M⁻¹ s⁻¹.
